Experimental data as given in patent US20240200091A1, “USE OF PROTOPORPHYRINOGEN OXIDASE” (BEIJING DABEINONG BIOTECHNOLOGY CO., LTD., priority 2021, published 2024).

B1: PPO14A: nucleotide sequence encoding microbial protoporphyrinogen oxidase PPO14 (SEQ ID NO:14), Arabidopsis thaliana/soybean common codon usage bias (nucleic acid)
DNA: ATGTCTAACAAGGCCTTGCTGCTCTATAGTACAAGAGAAGGTCAAACTAAAAAGATTCTTCAGTACATAGACAAAGAGCTTCATGATTACCAATGTGATTATGTCGATCTTCACACAATGCCTATAGAGATTGATTTCTCTGGTTATGATAAAGTTTTGGTAGGGGCGTCCATCCGGTATGGACATTTAAACAAAAAACTTTACAGATTCATCGAGAGGTACAAAGCAGAGTTGAAGGATAATAATGCTGCTTTCTTCTGCGTCAATCTAACCGCAAGGAAAGAACAACAAGGAAAAGATACTCCTGAAGGATCAGCTTATATTCAGACTTTTCTCAAGAAGTCTCCATGGCAGCCAGCATTGATAGGTGTTTTTGCTGGAGCTTTACGTTACCCGAAGTATAGATGGTTTGACAAGATGATGATTCGACTAATCATGACTATGACGGGCGGTGAAACCGACACATCAAAGGAAGTGGAGTATACAAATTGGAAGAAAGTGAGCCTCTTTGTTGAAAACTGGCAAAAGCAGTGA
modifications: The nucleotide sequence of PPO14A
B2: PPO11A: nucleotide sequence encoding microbial protoporphyrinogen oxidase PPO11 (SEQ ID NO:11), Arabidopsis thaliana/soybean common codon usage bias (nucleic acid)
DNA: ATGCAAAAAGCTCTTTTCCTCTACAGTTCAAGAGAAGGACAAACAAAGAAAATACTCAACTACATCAAGGAAGAACTATCAGAGTTTGATTGTGAGCTTGCTGATCTTCATCAGATTGAAGATATTGATTTAGCCTTGTATGATCGAGTATTAATAGGCGCAAGCATCCGGTATGGTCACTTGAACAAAAAGCTTTATCAGTTTATTGAGAAGCATGCTGAGCAACTTGCGCTGGCAAAAGCAGCTTTCTTCTGCGTGAATCTCACTGCAAGGAAAGAGGCTCAAGGAAAAGATACTCCGGAAGGTTCTGTTTACATAAAGACGTTTCTGTCCAAGTCTGCTTGGCAACCAAAGTTGATTGGAGTTTTTGCTGGTGCCCTATACTATCCTCGTTACCATTTCTTTGACAAAGTGATGATTAGATTCATCATGTCTTTAACCGGGGGAGAAACTGACACATCAAAAGAAGTTGAGTATACAAATTGGCAGAAAGTCTCGTTGTTTAGTGACAATTTCAAGAAGATGTGA
modifications: The nucleotide sequence of PPO11A
B3: PPO13A: nucleotide sequence encoding microbial protoporphyrinogen oxidase PPO13 (SEQ ID NO:13), Arabidopsis thaliana/soybean common codon usage bias (nucleic acid)
DNA: ATGGCTAAAGCTCTTTTCCTGTACTCATCTAGAGAAGGACAAACAAAGAAGATTCTTCATTACATAGACGAGAAGTTAACTGGGTTTGAGTGTGAACTCGTTGATTTGCACAATGTCGAAACTATTGATTTTTCTCAGTATGATAGAGTCTTAATTGGAGCGTCCATACGATATGGTCATCTCAACAAGAAATTATATCAGTTTATCGACCGTAACCTGAACCAGCTAGAGCAAAGCAAGGTAGCTTTCTTCTGCGTGAATCTCACCGCACGGAAAGAGGATCAAGGAAAAGATACTCCTGAAGGCTCAGCTTACATAAGGAAGTTTCTTATCAAATCGCCTTGGAAACCGACATTGATTGGTGTTTTCGCAGGTGCACTTTACTATCCAAGATATGGGTGGTTTGATAAAACAATGATCAAATTCATCATGAGTATGACTGGTGGAGAAACCGACACGACCAAGGAAGTTGAGTACACAAATTGGGAAAAAGTGGCCTTGTTTGCTGATAAGTTCAAGGAGCTATGA
modifications: The nucleotide sequence of PPO13A

Key:
Type in all cases: in vivo
Conditions in all cases: 7 DAT, number of plants of 24 per genotype, grades
[1] = system: Arabidopsis thaliana T1 plants; test: sulfentrazone tolerance of transgenic Arabidopsis thaliana T1 plants (spray, grade of pesticide damage)
Procedure, shortened: (§1)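 Glufosinate-selected T1 lines expressing PPO variants, with control-vector and wild-type plants (24 per genotype), were sprayed 18 days after sowing with saflufenacil 25 or 100, sulfentrazone 450 or 900, flumioxazin 60 or 240, or oxyfluorfen 180 or 720 g ai/ha, or water. Injured/total leaf area was graded 0–3 at 7 DAT.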

[2] = system: Arabidopsis thaliana T1 plants; test: saflufenacil tolerance of transgenic Arabidopsis thaliana T1 plants (spray, grade of pesticide damage)
Procedure, shortened: as §1

[3] = system: Arabidopsis thaliana T1 plants; test: flumioxazin tolerance of transgenic Arabidopsis thaliana T1 plants (spray, grade of pesticide damage)
Procedure, shortened: as §1

[4] = system: Arabidopsis thaliana T1 plants; test: oxyfluorfen tolerance of transgenic Arabidopsis thaliana T1 plants (spray, grade of pesticide damage)
Procedure, shortened: as §1

| Molecule | The grade of pesticide: grade 0 ([1]; sulfentrazone 450 g ai/ha (1×)) | The grade of pesticide: grade 1 ([1]; sulfentrazone 450 g ai/ha (1×)) | The grade of pesticide: grade 2 ([1]; sulfentrazone 450 g ai/ha (1×)) | The grade of pesticide: grade 3 ([1]; sulfentrazone 450 g ai/ha (1×)) | The grade of pesticide: grade 0 ([1]; sulfentrazone 900 g ai/ha (2×)) | The grade of pesticide: grade 1 ([1]; sulfentrazone 900 g ai/ha (2×)) | The grade of pesticide: grade 2 ([1]; sulfentrazone 900 g ai/ha (2×)) | The grade of pesticide: grade 3 ([1]; sulfentrazone 900 g ai/ha (2×)) | The grade of pesticide damage/plant: grade 0 ([2]; saflufenacil 25 g ai/ha (1×)) [plant] | The grade of pesticide damage/plant: grade 1 ([2]; saflufenacil 25 g ai/ha (1×)) [plant] | The grade of pesticide damage/plant: grade 2 ([2]; saflufenacil 25 g ai/ha (1×)) [plant] | The grade of pesticide damage/plant: grade 3 ([2]; saflufenacil 25 g ai/ha (1×)) [plant] | The grade of pesticide damage/plant: grade 0 ([2]; saflufenacil 100 g ai/ha (4×)) [plant] | The grade of pesticide damage/plant: grade 1 ([2]; saflufenacil 100 g ai/ha (4×)) [plant] | The grade of pesticide damage/plant: grade 2 ([2]; saflufenacil 100 g ai/ha (4×)) [plant] | The grade of pesticide damage/plant: grade 3 ([2]; saflufenacil 100 g ai/ha (4×)) [plant] | The grade of pesticide damage/plant: grade 0 ([3]; flumioxazin 60 g ai/ha (1×)) [plant] | The grade of pesticide damage/plant: grade 1 ([3]; flumioxazin 60 g ai/ha (1×)) [plant] | The grade of pesticide damage/plant: grade 2 ([3]; flumioxazin 60 g ai/ha (1×)) [plant] | The grade of pesticide damage/plant: grade 3 ([3]; flumioxazin 60 g ai/ha (1×)) [plant] | other results |
| --- | --- | --- | --- | --- | --- | --- | --- | --- | --- | --- | --- | --- | --- | --- | --- | --- | --- | --- | --- | --- | --- |
| B1 | 24 | 0 | 0 | 0 | 19 | 5 | 0 | 0 | 24 | 0 | 0 | 0 | 0 | 24 | 0 | 0 | 24 | 0 | 0 | 0 | The grade of pesticide damage/plant: grade 0 ([3]; flumioxazin 240 g ai/ha (4×)): 19 plant; The grade of pesticide damage/plant: grade 1 ([3]; flumioxazin 240 g ai/ha (4×)): 5 plant; The grade of pesticide damage/plant: grade 2 ([3]; flumioxazin 240 g ai/ha (4×)): 0 plant; The grade of pesticide damage/plant: grade 3 ([3]; flumioxazin 240 g ai/ha (4×)): 0 plant; The grade of pesticide damage/plant: grade 0 ([4]; oxyfluorfen 180 g ai/ha (1×)): 24 plant; The grade of pesticide damage/plant: grade 1 ([4]; oxyfluorfen 180 g ai/ha (1×)): 0 plant; The grade of pesticide damage/plant: grade 2 ([4]; oxyfluorfen 180 g ai/ha (1×)): 0 plant; The grade of pesticide damage/plant: grade 3 ([4]; oxyfluorfen 180 g ai/ha (1×)): 0 plant; The grade of pesticide damage/plant: grade 0 ([4]; oxyfluorfen 720 g ai/ha (4×)): 20 plant; The grade of pesticide damage/plant: grade 1 ([4]; oxyfluorfen 720 g ai/ha (4×)): 4 plant; The grade of pesticide damage/plant: grade 2 ([4]; oxyfluorfen 720 g ai/ha (4×)): 0 plant; The grade of pesticide damage/plant: grade 3 ([4]; oxyfluorfen 720 g ai/ha (4×)): 0 plant |
| B2 | 24 | 0 | 0 | 0 | 19 | 5 | 0 | 0 | 24 | 0 | 0 | 0 | 0 | 24 | 0 | 0 | 24 | 0 | 0 | 0 | The grade of pesticide damage/plant: grade 0 ([3]; flumioxazin 240 g ai/ha (4×)): 20 plant; The grade of pesticide damage/plant: grade 1 ([3]; flumioxazin 240 g ai/ha (4×)): 4 plant; The grade of pesticide damage/plant: grade 2 ([3]; flumioxazin 240 g ai/ha (4×)): 0 plant; The grade of pesticide damage/plant: grade 3 ([3]; flumioxazin 240 g ai/ha (4×)): 0 plant; The grade of pesticide damage/plant: grade 0 ([4]; oxyfluorfen 180 g ai/ha (1×)): 24 plant; The grade of pesticide damage/plant: grade 1 ([4]; oxyfluorfen 180 g ai/ha (1×)): 0 plant; The grade of pesticide damage/plant: grade 2 ([4]; oxyfluorfen 180 g ai/ha (1×)): 0 plant; The grade of pesticide damage/plant: grade 3 ([4]; oxyfluorfen 180 g ai/ha (1×)): 0 plant; The grade of pesticide damage/plant: grade 0 ([4]; oxyfluorfen 720 g ai/ha (4×)): 21 plant; The grade of pesticide damage/plant: grade 1 ([4]; oxyfluorfen 720 g ai/ha (4×)): 3 plant; The grade of pesticide damage/plant: grade 2 ([4]; oxyfluorfen 720 g ai/ha (4×)): 0 plant; The grade of pesticide damage/plant: grade 3 ([4]; oxyfluorfen 720 g ai/ha (4×)): 0 plant |
| B3 | 24 | 0 | 0 | 0 | 23 | 1 | 0 | 0 | 24 | 0 | 0 | 0 | 0 | 24 | 0 | 0 | 24 | 0 | 0 | 0 | The grade of pesticide damage/plant: grade 0 ([3]; flumioxazin 240 g ai/ha (4×)): 19 plant; The grade of pesticide damage/plant: grade 1 ([3]; flumioxazin 240 g ai/ha (4×)): 5 plant; The grade of pesticide damage/plant: grade 2 ([3]; flumioxazin 240 g ai/ha (4×)): 0 plant; The grade of pesticide damage/plant: grade 3 ([3]; flumioxazin 240 g ai/ha (4×)): 0 plant; The grade of pesticide damage/plant: grade 0 ([4]; oxyfluorfen 180 g ai/ha (1×)): 24 plant; The grade of pesticide damage/plant: grade 1 ([4]; oxyfluorfen 180 g ai/ha (1×)): 0 plant; The grade of pesticide damage/plant: grade 2 ([4]; oxyfluorfen 180 g ai/ha (1×)): 0 plant; The grade of pesticide damage/plant: grade 3 ([4]; oxyfluorfen 180 g ai/ha (1×)): 0 plant; The grade of pesticide damage/plant: grade 0 ([4]; oxyfluorfen 720 g ai/ha (4×)): 18 plant; The grade of pesticide damage/plant: grade 1 ([4]; oxyfluorfen 720 g ai/ha (4×)): 6 plant; The grade of pesticide damage/plant: grade 2 ([4]; oxyfluorfen 720 g ai/ha (4×)): 0 plant; The grade of pesticide damage/plant: grade 3 ([4]; oxyfluorfen 720 g ai/ha (4×)): 0 plant |
